Experiments:
Human tau = Human tau (human, UniProt P10636 1-441); assay: direct binding ELISA
Human alpha-synuclein = Human alpha-synuclein (human, UniProt P37840 1-140); assay: direct binding ELISA

Human tau, sequence (P10636 other isoform, or with tags, fused parts or gaps): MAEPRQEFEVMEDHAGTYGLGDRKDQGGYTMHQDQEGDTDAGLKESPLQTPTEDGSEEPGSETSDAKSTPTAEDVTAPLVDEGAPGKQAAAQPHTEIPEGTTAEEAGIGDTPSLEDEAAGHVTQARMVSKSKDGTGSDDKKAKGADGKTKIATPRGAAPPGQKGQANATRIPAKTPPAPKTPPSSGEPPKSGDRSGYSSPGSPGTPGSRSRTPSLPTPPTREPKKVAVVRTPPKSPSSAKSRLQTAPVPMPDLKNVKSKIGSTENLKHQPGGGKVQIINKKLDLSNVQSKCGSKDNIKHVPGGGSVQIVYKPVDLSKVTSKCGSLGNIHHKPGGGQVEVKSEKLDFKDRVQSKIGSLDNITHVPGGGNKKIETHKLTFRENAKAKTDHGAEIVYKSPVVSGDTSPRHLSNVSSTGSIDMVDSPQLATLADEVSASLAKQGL

EC50 (Human tau)	EC50 (Human alpha-synuclein)	Binder
0.98 nM	–	FC5-H62(T33C/A104C)-G4S-6C5 (LC) (bispecific antibody) heavy: not shown light: DVQLVESGGGLVQPGGSLRLSCAASGFKITHYCTGWFRQAPGKEREFVSRITWGGDNTFYSNSVKGRFTISRDNSKNTVYLQMNSLRAEDTAVYYCAAGSTSTCTPLRVDYWGQGTLVTVSSGGGGSSYELTQPPSVSVSPGQTARITCSGDALPKRYVYWYQQKSGQAPVLVIYEDSKRPSGIPETFSGSSSGTMATLTISGAQVEDEADYYCYSTDSNGHHWVFGGGTKLTVLGQPKAAPSVTLFPPSSEELQANKATLVCLISDFYPGAVTVAWKADSSPVKAGVETTTPSKQSNNKYAASSYLSLTPEQWKSHRSYSCQVTHEGSTVEKTVAPTECS
0.74 nM	–	FC5-H62(T33C/A104C)-G4S-6C5 hIgG1 (HC) (bispecific antibody) heavy: not shown light: SYELTQPPSVSVSPGQTARITCSGDALPKRYVYWYQQKSGQAPVLVIYEDSKRPSGIPETFSGSSSGTMATLTISGAQVEDEADYYCYSTDSNGHHWVFGGGTKLTVLGQPKAAPSVTLFPPSSEELQANKATLVCLISDFYPGAVTVAWKADSSPVKAGVETTTPSKQSNNKYAASSYLSLTPEQWKSHRSYSCQVTHEGSTVEKTVAPTECS
0.52 nM	–	6C5 hIgG1 (antibody, V domains shown) VH: QVQLVESGGGVVQPGRSLRVSCAASGFTFSSYDMHWVRQAPGKGLEWVAVIWFDGSNEFYADSVKGRFTISRDNSKNTLFLQMNSLRAEDTAVYYCARDLGASVTTSNAENFHHWGQGTLVTVSS VL: SYELTQPPSVSVSPGQTARITCSGDALPKRYVYWYQQKSGQAPVLVIYEDSKRPSGIPETFSGSSSGTMATLTISGAQVEDEADYYCYSTDSNGHHWVFGGGTKLTVLG
–	2.7 nM	12F4 hIgG1 (antibody, V domains shown) VH: EVQLVESGGGLVEPGGSLRLSCAVSGFDFEKAWMSWVRQAPGQGLQWVARIKSTADGGTTSYAAPVEGRFIISRDDSRNMLYLQMNSLKTEDTAVYYCTSAHWGQGTLVTVSS VL: SYELTQPPSVSVSPGQTARITCSGEALPMQFAHWYQQRPGKAPVIVVYKDSERPSGVPERFSGSSSGTTATLTITGVQAEDEADYYCQSPDSTNTYEVFGGGTKLTVLS
